This is an account of results in patent US8377889B2, “Adiponectin receptor fragments and methods of use” (Siemens Healthcare Diagnostics Inc., priority 2007, dated 2013).

Data set [1] is described as follows: Plasma ECM32 (AdipoR1) level in normal and diabetic rats. The format is in vivo. The conditions noted are these: rat, 2 mg/kg, 120 min. The protocol:
The effect of ECM32 (SEQ ID NO:1) on the plasma adiponectin and ECM32 levels in normal and diabetic rats was evaluated. The peptide was injected at 2 mg/kg along with a control group.

Another data set has as its target ADAM-17 (Homo sapiens, UniProt P78536). The experiment in a line: Inhibition of ADAM-17 (TACE) activity. In kind it is biochemical. The conditions noted are these: for ADAM 17 inhibition: Example 9, Table 3. The protocol: (§1) The cleavage enzymes for ECM32 are also potential therapeutic targets. ECM32 sequence at the cleavage site was matched to Elastase (X-VV) and ADAM17 (X-VVAA) as potential enzymes (proteases) able to cleave or bind ECM32. The peptides of SEQ ID NO:1 (ECM32) and SEQ ID NO:2 (ECM30) were tested at levels of 0 mg/L, 12.5 mg/L, 25 mg/L, and 50 mg/L for their effect on cleavage enzymes.
The effect of ECM32 (SEQ ID NO:1), ECM30 (SEQ ID NO:2), ECM25 (SEQ ID NO:5), ECM10 (SEQ ID NO:6), ECM12 (SEQ ID NO:7), and ECM9 (SEQ ID NO:8) on ADAM-17 activity was evaluated.

Data set [2] addresses T1, insulin degradation enzyme (IDE) (Homo sapiens, UniProt P14735). Description: Inhibition of IDE activity. The format is biochemical. The conditions noted are these: Example 9, Table 3.
The test system of another data set is normal rats. The experiment in a line: Plasma insulin testing in normal rats. In kind it is in vivo, rat. The method, then:
The peptides of SEQ ID NO:1 (ECM32) and SEQ ID NO:2 (ECM30) were tested by treating normal rat groups of 6 to 8 animals at 2 mg/mL in saline intravenously and compared to an untreated control group (0.9% saline solution only). All three groups were fasted on Day 0. Fasted plasma glucose and insulin were measured on Day 1 at 0, 30, 60, 90, and 120 minutes post glucose dose (5 mL/kg). Plasma levels of ECM30 and ECM32 were also measured. Plots of the data are shown in FIG. 1 and FIG. 2, for the insulin level in ng/mL and glucose level in mg/dL, respectively, as a function of time.

The next data set concerns diabetic rats. The experiment in a line: Plasma insulin testing in diabetic rats. The format is in vivo, rat. The conditions noted are these: 2 mg/mL and 10 mg/mL in saline intravenously. The protocol:
The peptide of SEQ ID NO:2 (ECM30) was tested by treating diabetic rat groups of 8 animals at 2 mg/mL and 10 mg/mL in saline intravenously and compared to a control group (bovine serum albumin in saline). All three groups were fasted on Day 0. Fasted plasma glucose and insulin were be measured on Day 1 at 0, 30, 60, 90, and 120 minutes post glucose dose. Plots of the data are shown in FIG. 3 and FIG. 4, for the insulin level and % of pre-dose glucose in ng/ml, respectively, as a function of time.

A further data set has as its system Elastase. The experiment in a line: Elastase inhibition. The conditions noted are these: Example 4; 0, 12.5, 25, 50 mg/L. In kind it is biochemical. The method, then: as §1
The target of data set [3] is T1, insulin degradation enzyme (IDE). The experiment in a line: Inhibition of IDE activity. The conditions noted are these: Example 8; 0-50 μg/ml for ECM32, 0-100 μg/ml for ECM30. In kind it is biochemical. The protocol: The effect of ECM32 (SEQ ID NO:1) and ECM30 (SEQ ID NO:2) on IDE activity over time was evaluated at four different dose levels (0, 12.5, 25, and 50 μg/ml for ECM32 and 0, 25, 50, and 100 μg/ml for ECM30). The results are shown in FIG. 9 for ECM32 (SEQ ID NO:1) and FIG. 10 for ECM30 (SEQ ID NO:2). […]

In the next data set the test system is normal and diabetic rats. Description: Effect on plasma glucose level in normal and diabetic rats. In kind it is in vivo, rat. The conditions noted are these: injected at 2 mg/kg. The protocol: The effect of ECM32 (SEQ ID NO:1) and ECM30 (SEQ ID NO:2) on the plasma glucose levels in normal and diabetic rats was evaluated. The peptides were injected at 2 mg/kg along with a control group. […] This could be due to ADAM-17 cleavage of ECM30 into IDE inhibitory forms in vivo.

Entries after “also recorded” stand apart in the source; their conditions may differ. Where two headings read alike, the source gives them in different places. Residues, ends and D or L forms follow the SMILES beside them.

Sequence of ADAM-17 (P78536 215-824, species assumed): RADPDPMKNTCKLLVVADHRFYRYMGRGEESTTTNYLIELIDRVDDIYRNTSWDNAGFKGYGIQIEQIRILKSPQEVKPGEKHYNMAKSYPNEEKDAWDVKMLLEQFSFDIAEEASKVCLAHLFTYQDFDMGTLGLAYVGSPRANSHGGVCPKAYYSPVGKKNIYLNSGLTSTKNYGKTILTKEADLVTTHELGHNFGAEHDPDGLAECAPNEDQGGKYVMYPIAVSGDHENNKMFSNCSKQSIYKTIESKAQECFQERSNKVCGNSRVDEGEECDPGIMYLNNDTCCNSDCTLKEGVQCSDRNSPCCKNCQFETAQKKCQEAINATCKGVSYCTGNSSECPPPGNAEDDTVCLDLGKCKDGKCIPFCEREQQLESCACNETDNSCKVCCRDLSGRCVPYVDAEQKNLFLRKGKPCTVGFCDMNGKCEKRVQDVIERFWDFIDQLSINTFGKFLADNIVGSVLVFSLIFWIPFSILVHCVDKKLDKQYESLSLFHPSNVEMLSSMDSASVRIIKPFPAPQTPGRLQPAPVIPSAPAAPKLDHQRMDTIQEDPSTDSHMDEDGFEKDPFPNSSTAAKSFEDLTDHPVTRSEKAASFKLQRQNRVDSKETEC

Consider `CC(C)C[C@H](NC(=O)[C@H](CC(C)C)NC(=O)[C@@H](NC(=O)[C@H](CC(=O)O)NC(=O)[C@H](CC(=O)O)NC(=O)[C@@H](NC(=O)[C@H](CS)NC(=O)CNC(=O)CNC(=O)[C@H](CCC(=O)O)NC(=O)[C@H](CC(C)C)NC(=O)CNC(=O)[C@H](Cc1ccc(O)cc1)NC(=O)[C@H](CCCNC(=N)N)NC(=O)[C@H](Cc1ccccc1)NC(=O)[C@H](CCC(=O)O)NC(=O)[C@H](CCC(N)=O)NC(=O)[C@H](CC(C)C)NC(=O)[C@H](CC(N)=O)NC(=O)[C@H](CO)NC(=O)[C@@H](NC(=O)CNC(=O)[C@H](Cc1ccc(O)cc1)NC(=O)[C@H](Cc1ccccc1)NC(=O)[C@H](Cc1c[nH]cn1)NC(=O)[C@@H](NC(=O)[C@H](Cc1ccccc1)NC(=O)[C@H](C)NC(=O)[C@H](C)NC(=O)[C@H](C)NC(=O)[C@@H](NC(=O)[C@@H](N)C(C)C)C(C)C)C(C)C)C(C)C)[C@@H](C)O)[C@@H](C)O)C(=O)O` [ECM32] (H-VVAAAFVHFYGVSNLQEFRYGLEGGCTDDTLL-OH; N-terminus and C-terminus assumed), for which the level at 2 h in data set [1] (Diabetic Rats (ZDF), read-out: ECM32 (AdipoR1) in Plasma, Mean ± SD) was 0.0951 ± 0.0361 µg/mL; in data set [1] (Normal Rats (SD)), 0.113 ± 0.0185 µg/mL.
Turning to “HFYGVSNLQEFR [ECM12, ADIPOR1 fragment, 12 amino acids]”, the “ADAM 17 inhibition” value with ADAM-17 is reported as “no significant effect on ADAM-17 activity; also recorded: negative”. The IDE inhibition entry in data set [2] is listed as “inhibit IDE activity; also recorded: positive”.
In the case of “HFYGVSNLQEFRYGLEGGCTDDTLL [ECM25, ADIPOR1 C-terminal fragment, 25 amino acids]”, the “ADAM 17 inhibition” value in the data set with ADAM-17 is given as “no significant effect on ADAM-17 activity”; with ADAM-17 (listed as ECM 25), “negative”. In addition, the IDE inhibition result is recorded as “inhibit IDE activity” in data set [2] and “positive” in data set [2] (listed as ECM 25).
Turning to “HVLVVAAAFVHFYGVSNLQEFRYGLEGGCT (listed as Homo Sapiens) [ECM30, ADIPOR1 fragment, 30 amino acids, uncleaved form]”, the “plasma insulin compared to the control group” value in the data set with normal rats (2 mg/mL in saline intravenously, 0-120 min post glucose dose) is on record as “marked elevation in the plasma insulin”. Moreover, the “insulin peak relative to control” value in the data set on normal rats (30 minute time point) is recorded as “twice that observed for the control”. Besides, the plasma insulin entry in the data set with diabetic rats was “did not increase insulin”. Besides, the “inhibitory effect on ADAM-17 (% TACE control activity)” value with ADAM-17 (Example 4, 0, 12.5, 25, 50 mg/L) is reported as “did not significantly inhibit”. The “ADAM 17 inhibition” value in the data set with ADAM-17 is “no significant effect on ADAM-17 activity”; with ADAM-17 (listed as ECM 30) it was “negative”. In addition, the elastase inhibition entry in the data set with Elastase is listed as “Neither ECM30 nor ECM32 showed elastase inhibition”. Moreover, the “IDE activity over time” value in data set [3] was “no significant effect on IDE over time”. Moreover, in the data set on normal and diabetic rats, the plasma glucose levels result was “lowered glucose levels, but at longer time points”. Also, the results for the IDE inhibition entry in data set [2] and in data set [2] (listed as ECM 30) were “no significant effect on IDE” and “negative”, respectively.
“SGCTDDTLL [ECM9, ADIPOR1 fragment, 9 amino acids]”: the “ADAM 17 inhibition” value is “no significant effect on ADAM-17 activity” with ADAM-17 and “negative” with ADAM-17 (listed as ECM 9). The IDE inhibition result in data set [2] is on record as “inhibit IDE activity”; in data set [2] (listed as ECM 9) it was “positive”.
“VVAAAFVHFY [ECM10, ADIPOR1 fragment, 10 amino acids]”: the “ADAM 17 inhibition” value in the data set with ADAM-17 is “no significant effect on ADAM-17 activity”; with ADAM-17 (listed as ECM 10), “negative”. For the same molecule, the values for the IDE inhibition result in data set [2] and in data set [2] (listed as ECM 10) were “inhibit IDE activity” and “positive”, respectively.
